One assay concerns lysosomes (LAMP1). In words: Immunofluorescence colocalization of GFP-NCOA4^383−522 with lysosomes (LAMP1). It is filed as cell-based. To be noted: GFP-fused constructs in NCOA4Δ HeLa cells, 50 μM DFO 24 h; anti-GFP and anti-LAMP1; area of overlap per nucleus and Manders' coefficient. The method, then:
For colocalization assays, NCOA4^383−522 cell lines were seeded on glass coverslips in a 12-well cell culture plate in DMEM as above. After 24 h, media were aspirated and replaced with DMEM supplemented with 50 μM DFO, and cells were incubated for an additional 24 h. Cells were then fixed with 4% paraformaldehyde in PBS (150 mM NaCl, 2.7 mM KCl, 10 mM Na2HPO4, 1.8 mM KH2PO4, pH 8.0) for 15 min at RT, quenched with 100 mM glycine in PBS for 10 min, and washed three times with PBS. Cells were next permeabilized with 0.5% Triton X-100 in PBS for 10 min, washed once with PBS, and blocked for 30 min in 2% BSA in PBS. Slides were next incubated in anti-GFP mouse antibody (sc-9996; Santa Cruz) diluted 1:200, anti-LAMP1 rabbit antibody (9091T; Cell Signaling) diluted 1:200, and Hoechst stain (H3570; Invitrogen) diluted 1:1,000, in 2% BSA in PBS for 1 h. […]
All image analysis was conducted in FIJI ([Schindelin et al, 2012]). […] The overlapping regions were then measured, and the area per nucleus was recorded. […] For all images, threshold values were manually chosen for the pink and green channels, and Manders’ value, which calculates the fraction of the pink signal that overlaps green signal, was recorded.

For assay [1], the system named is ferritin heavy chain (FTH1). As to the kind of experiment: Western blot assay of ferritin degradation (ferritinophagy) in HeLa cell lines. It is filed as cell-based. The following applies: EGFP-fused constructs stably integrated in NCOA4Δ HeLa cells; 40 μM FAC 24 h then 50 μM DFO 24 h; quantitative Western blot FTH1/tubulin, triplicate. The source says:
Stably integrated NCOA4^383−522 cell lines were generated via retroviral transfection of the relevant NCOA4^383−522 construct in a CMV-enhancer–bearing pMRX plasmid (84573; Addgene) into NCOA4Δ HeLa cells (a gift from Prof. M. Poli, University of Brescia, Italy) ([Gryzik et al, 2021]). In this pMRX plasmid, EGFP was fused to the N terminus of NCOA4^383−522 and its mutants with a 13-residue GS linker. HeLa cells were transfected and selected as described previously ([Sena-Esteves & Gao, 2018]).
After 24-h, all media were aspirated and replaced with either DMEM or DMEM supplemented with 40 μM ferric ammonium citrate (FAC). After an additional 24 h, all media were aspirated and replaced with either DMEM or DMEM supplemented with 50 μM deferoxamine (DFO). After an additional 24-h incubation, cells were trypsinized (200 μl, 5 min, 37°C), pelleted via centrifugation at 100g for 1 min, resuspended in Dulbecco’s PBS (D8537; Sigma-Aldrich), and pelleted as above before undergoing flash freezing in liquid nitrogen and storage at −80°C.
Frozen cell pellets were resuspended in 100 μl 4X Laemmli buffer with Halt protease and phosphatase inhibitor (78440; Thermo Fisher Scientific) and lysed with a 29-gauge syringe. […] Ferritin levels were then measured by densitometry in FIJI ([Schindelin et al, 2012]) and normalized to tubulin intensity measured as above.

B1: NCOA4^383-522: NCOA4 fragment of residues 383–522; biotinylated AviTag-His6-NCOA4-MBP in vitro, EGFP fusion in cells (protein)
chain: SMVTEDWLVQNHQDPCKVEEVCRANEPCTSFAECVCDENCEKEALYKWLLKKEGKDKNGMPVEPKPEPEKHKDSLNMWLCPRKEVIEQTKAPKAMTPSRIADSFQVIKNSPLSEWLIRPPYKEGSPKEVPGTEDRAGKQK
modifications: biotin on the AviTag (BirA co-expressed); left off: AviTag, N-terminal, kept | His6, N-terminal, kept | MBP, C-terminal, kept
notes: NCOA4 fragment of residues 383–522; biotinylated AviTag-His6-NCOA4-MBP in vitro, EGFP fusion in cells
As for B1, the “NCOA4:lysosome colocalization (in words)” value with lysosomes (LAMP1) was “significant colocalization”. The “ferritin degradation upon iron chelation with DFO (in words)” value in assay [1] is on record as “ferritin degradation was robust”.

For the origin of these results see publication PMC12872393, “NCOA4 initiates ferritinophagy by avidly binding GATE16 using two short linear interaction motifs” (Life Science Alliance, 2026).
